Molecular target: T1, Haptoglobin (Homo sapiens, UniProt P00738)
T1 chain: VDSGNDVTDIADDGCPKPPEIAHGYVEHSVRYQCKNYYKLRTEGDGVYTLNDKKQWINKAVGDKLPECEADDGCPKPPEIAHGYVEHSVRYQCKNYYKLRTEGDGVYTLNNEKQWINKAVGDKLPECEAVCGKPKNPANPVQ
Test: SPR

B1: Hemoglobin (protein)
chain 1: not shown
chain 2: not shown
modifications: dextran (10 kDa)-linker at beta Cys93
- Kd: 823 pM

— paper PMC3353419 (2013)
